Like-named read-outs stand apart in the source and are kept apart here.

Data set [1] addresses T1, NCAP (SARS-CoV-2, UniProt P0DTC9). Description: competition.
The target of data set [2] is T2, DD-C (SARS-CoV-2, UniProt P0DTC9). Briefly: EMSA. (In general: A gel shift assay detects complexes by their altered migration in electrophoresis.)
For data set [3], the target named is T3, LCD (SARS-CoV-2, UniProt P0DTC9). Briefly: EMSA.
The target in data set [4] is T1, NCAP. Briefly: EMSA.
The target of data set [5] is T1, NCAP. Briefly: EMSA. The source holds these as a separate data set.
Data set [6] deals with T4, N-RBD (SARS-CoV-2, UniProt P0DTC9). Description: EMSA.
Data set [7] addresses T2, DD-C. Description: EMSA. The source holds these as a separate data set.
Data set [8] deals with T3, LCD. Briefly: EMSA. The source holds these as a separate data set.
The target of data set [9] is T4, N-RBD. Briefly: EMSA. This is another data set of the same source.
Data set [10] has as its target T1, NCAP. Description: EMSA. This is another data set of the same source.
Data set [11] has as its target T1, NCAP. Description: EMSA. This is another data set of the same source.
Data set [12] has as its target T1, NCAP. Description: competition. This is another data set of the same source.

In the case of AUCACACUCUUGUCCGAUGUU (ssRNA, 5'-phosphate) [siDGCR8-1 antisense], the binding result in [1] is “no binding”.

B1: S2hp (structured_RNA)
RNA: GGCUGUGUGGCUGUCACUCGGCUGCAUGCUUAGUGCACUCACGCAGUAUAAUUAAUAACUAAUUACUGUCGUUGACAGGACACGAGUAACUCGUCUAUCUUCUGCAGGCUGCUUACGGUUUCGUCCGUGUUGCAGCCGAUCAUCAGCACAUCUAGGUUUCGUCCGGGUGUGACCGAAAGGUAAGAUGGAGAGCCUUGUCCCUGGUUUCAACGA
As to B1, the Kd (commonly a measure of binding affinity in units of concentration) in data set [2] was about 707 nM; in data set [3], about 1410 nM; in [4], 312 ± 39 nM; in [5] it was 173 ± 14 nM; in data set [6], about 354 nM.

B2: F257 (structured_RNA)
RNA: GGUCGUUGACAGGACACGAGUAACUCGUCUAUCUUCUGCAGGCUGCUUACGGUUUCGUCCGUGUUGCAGCCGAUCAUCAGCACAUCUAGGUUUCGUCCGGGUGUGACCGAAAGGUAAGAUGGAGAGCCUUGUCCCUGGUUUCAACGAGAAAACACACGUCCAACUCAGUUUGCCUGUUUUACAGGUUCGCGACGUGCUCGUACGUGGCUUUGGAGACUCCGUGGAGGAGGUCUUAUCAGAGGCACGUCAACAUCUUAAA
Turning to B2, the Kd in data set [5] worked out at 23 ± 5 nM. As to UAUAAUUAAUAACUAAUUACUG (ssRNA) [S2], the binding result in data set [7], in data set [8] and in data set [9] was “no binding” each time. The molecule also displayed a Kd in [5] of 216 ± 23 nM.

In the case of GGCUGUGUGGCUGUCACUCGGCUGCAUGCUUAGUGCACUCACGCAG (structured_RNA) [SL4], the equilibrium dissociation constant (Kd) in data set [10] was determined as 4800 ± 200 nM; in data set [11], 356 ± 43 nM. Consider GGCUGUGUGGCUGUCACUCGGCUGCAUGCUUAGUGCACUCACGCAG (structured_RNA) [SL4 hairpin], for which the Kd was 8600 ± 1000 nM in [4] and 569 ± 67 nM in data set [5].

B3: F294 (structured_RNA)
RNA: GGAUUAAAGGUUUAUACCUUCCCAGGUAACAAACCAACCAACUUUCGAUCUCUUGUAGAUCUGUUCUCUAAACGAACUUUAAAAUCUGUGUGGCUGUCACUCGGCUGCAUGCUUAGUGCACUCACGCAGUAUAAUUAAUAACUAAUUACUGUCGUUGACAGGACACGAGUAACUCGUCUAUCUUCUGCAGGCUGCUUACGGUUUCGUCCGUGUUGCAGCCGAUCAUCAGCACAUCUAGGUUUCGUCCGGGUGUGACCGAAAGGUAAGAUGGAGAGCCUUGUCCCUGGUUUCAACGA
In data set [5], B3 came in with a Kd of 26 ± 10 nM.

B4: S1hp (structured_RNA)
RNA: GGUUUAUACCUUCCCAGGUAACAAACCAACCAACUUUCGAUCUCUUGUAGAUC
On to B4, for which the binding result in data set [12] was “binds”.

B5: Tet3-9 (structured_RNA)
RNA: GGACCGUCAAAUUGCGGGAAAGGGGUCAACAGCCGUUCAGUACCAAGUCUCAGGGGAAACUUUGAGAUGGCCUUGCAAAGGGUAUGGUAAUAAGCUGACGGACAUGGUCCUAACCACGCAGCCAAGUCCUAAGUCAACAGGAGACUGUUGAUAUGGAUGCAGUUCACAGACUAAAUGUCGGUCGGGGAAGAUGUAUUCUUCUCAUAAGAUAUAGUCGGACCUCUCCCGAAAGGGAGUUGGAGUACUCGAAAUUCGUUUGGAGGGCUGCAGGGCCCUCUAGA
With B5, the binding result in data set [1] is “binds”.

B6: siDGCR8-1 duplex (dsRNA)
RNA 1: CAUCGGACAAGAGUGUGAUUU
RNA 2: AUCACACUCUUGUCCGAUGUU
modifications: 5'-phosphate on both strands
With B6, in [1], the binding result was “binds”.

B7: S8hp (structured_RNA)
RNA: GGAAGGAGCUGGUGGCCAUAGUUACGGCGCCGAUCUAAAGUCAUUUGACUUAGGCGACGAGCUUGGCACUGAUCCUUAUGAAGAUUUUCAAGAAAACUGGAACACUAAACAUAGCAGUGGUGUUACCCGUGAACUCAUGCGUGAGCUUAACGGAGGGGCAUACACUCGCUAUGU
As to B7, in data set [1], the binding result is recorded as “binds”.

B8: SL5 (structured_RNA)
RNA: GGUCGUUGACAGGACACGAGUAACUCGUCUAUCUUCUGCAGGCUGCUUACGGUUUCGUCCGUGUUGCAGCCGAUCAUCAGCACAUCUAGGUUUCGUCCGGGUGUGACCGAAAGGUAAGAUGGAGAGCCUUGUCCCUGGUUUCAACGA
As to B8, the figures for the Kd in data set [4] and in data set [5] were 1250 ± 130 nM and 166 ± 36 nM, respectively.

B9: S1.5hp (structured_RNA)
RNA: GGAUCUCUUGUAGAUCUGUUCUCUAAACGAACUUUAAAAUCUGUGUGGCUGUCACUCGGCUGCAUGCUUAGUGCACUCACGCAG
In the case of B9, in data set [12], the binding result is reported as “binds”.

B10: F127 (structured_RNA)
RNA: GGAUUAAAGGUUUAUACCUUCCCAGGUAACAAACCAACCAACUUUCGAUCUCUUGUAGAUCUGUUCUCUAAACGAACUUUAAAAUCUGUGUGGCUGUCACUCGGCUGCAUGCUUAGUGCACUCACGCAG
For B10, binding in data set [5] was characterised by a dissociation constant (Kd) of 183 ± 56 nM.

The values are drawn from publication doi:10.1101/2021.12.25.474155.
